Measurements as given in the supplement of paper PMC10567573.

B1: NEUROD6 (parent)
chain: YHSPELTTPPGHGTLDNSKSMKPY

Variants of: B1
Assay: protein stability index of a GFP-peptide fusion (GPS, HEK-293T) (PSI 1-6); higher = more stable
Details: c terminus: a fixed tail appended
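Further: lentivirally expressed fusions sorted by FACS into six bins by GFP to DsRed ratio, PSI derived from sequencing read proportions per bin multiplied by bin number.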

Protein stability index: each site, then its substitutions
P9: M 1.8, Y 1.66, W 1.94, K 2.45, R 2.29, D 2.78, A 2.04, C 2.18, F 1.63, Q 2.22, S 2.22, E 2.58, V 1.95, L 2.64, G 2.03, N 2.24, T 2.32, I 2.35, H 3.09
L15: D 2.69, C 2.1, A 2.17
T8: H 2.15, M 1.92, I 2.12, Q 2.52, Y 2.11, E 3.34, D 3.14, R 2.35, K 2.37, V 2.04, F 2.43, A 2.17, S 2, W 1.84, L 2.1, G 2.47, N 2.52, C 2.01
P10: V 2.33, Y 1.96, H 2.17, R 2.3, F 2.03, Q 2.02, L 2.13, I 1.67, D 2.74, K 2.13, C 1.9, G 1.78, M 1.88, N 1.97, W 3.84, A 1.81, T 1.7, S 1.75, E 2.42
T7: C 1.98, N 2.84, E 4.01, Y 2.55, V 2.49, P 3.56, A 1.72, M 3.75, W 3.05, I 2.19, Q 2.39, F 2.12, S 1.96, L 2.3, D 3.48, K 2.69, G 2.97, H 1.86, R 3.58
H12: W 1.43, D 2.56, M 2.56, E 2.24, F 1.97, T 2.53, P 2.25, L 2.29, Y 1.71, A 2.16, K 2.18, R 2.25, V 2.16, I 2.01, C 2.25, Q 2.21, S 1.96, N 2.49, G 2.48
L6: T 3.28, G 3.05, D 4.05, H 3.28, N 3.25, Q 3.32, V 2.39, W 2.97, S 3.13, K 4.08, Y 1.5, E 3.86, I 2.63, F 2.85, M 2.33, R 4.02
T14: A 2.44, C 1.9, I 1.9, M 2.33, L 1.86, V 1.79, N 3.02, H 2.24, S 2.25, Y 1.77, G 1.87, K 2.07, W 2.37, R 2.07, Q 1.6, D 2.27, E 2.51, F 2.07
G13: E 2.67, V 2.05, I 2.06, N 2.47, S 2.19, D 2.46, K 2.35, Q 2.11, C 1.99, L 2.14, W 1.76, Y 2.07, R 1.76, A 2.28, H 2.48, T 2.41, M 2.13, F 2.18
G11: E 2.67, H 1.99, S 2.17, Y 2.07, W 1.98, N 2.39, I 2.21, D 2.69, Q 2.28, M 2.48, C 2.06, A 2.34, T 2.08, R 2.29, L 2.31, V 1.96, F 1.73, K 2.5
